Laboratory results from patent US10591471B2, “Suppression of SPLA2-integrin binding for treating an inflammatory condition or suppressing cell proliferation” (THE REGENTS OF THE UNIVERSITY OF CALIFORNIA, priority 2015, dated 2020).
Numbering of substitutions follows the chain as printed. In names and notes the source's numbering stands. Where no end group is shown, it is not given here.

Key:
[1] = tested on: other ligands (e.g., SDF-1, IGF-1); assay: Additional testing: binding of linear and cyclic site 2 peptides to other ligands
From the text: Data are shown in FIG. 12 comparing cyclic site 2 peptides (β1 and β3) binding to sPLA2-IIA or FKN.

U937 cells = assay: sPLA2-IIA-induced chemotaxis in modified Boyden chambers; assay type: cell-based, human; details: 1 μg/ml sPLA2-IIA, 20 μg/ml peptide, 5 h
Procedure: FIG. 11. S2-β1 peptide suppresses sPLA2-IIA-induced chemotaxis. Chemotaxis was measured in modified Boyden chambers. 1 μg/ml sPLA2-IIA and 20 μg/ml S2-β1 peptide or control peptides in 600 μl RPMI 1640 medium were placed in lower chamber, and U937 cells (2×10^5 cells in 100 μl RPMI 1640 medium) were placed in the upper chamber. After 5 hours of incubation at 37° C., cells in the lower chamber was counted.
Chemotaxis was measured in modified Boyden Chambers (Transwell). One μg/ml sPLA2-IIA and 20 μg/ml S2-β1 peptide or control peptides in 600 μl RPMI 1640 medium were placed in the lower chamber, and U937 cells (2×10^5 cells in 100 μl RPMI1640 medium) were placed in the upper chamber. After 5 h incubation at 37° C., cells in the lower chamber were counted.

sPLA2-IIA = biological target: T1, sPLA2-IIA (Homo sapiens, UniProt P14555); assay: ELISA-type binding of S2 peptides to immobilized sPLA2-IIA; details: GST-tagged peptides; sPLA2-IIA 20 μg/ml coating
T1 construct: made in house
T1 sequence (P14555 21-144): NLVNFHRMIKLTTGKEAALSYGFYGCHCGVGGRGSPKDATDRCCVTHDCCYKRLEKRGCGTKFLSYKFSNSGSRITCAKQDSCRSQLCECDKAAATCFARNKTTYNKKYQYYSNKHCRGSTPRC
Procedure: ELISA-type binding assays were performed as described previously (18). Briefly, wells of 96-well Immulon 2 microtiter plates (Dynatech Laboratories, Chantilly, Va.) were coated with 100 μl 0.1 M NaHCO3 containing sPLA2-IIA, γC399tr, FN-H120 for 2 h at 37° C. Remaining protein binding sites were blocked by incubating with PBS/0.1% BSA for 30 min at room temperature. After washing with PBS, S2 peptides were added to the wells and incubated in PBS for 2 h at room temperature. After unbound S2 peptides were removed by rinsing the wells with PBS, bound S2 peptides (GST-tagged) were measured using HRP-conjugated anti-GST antibody and peroxidase substrates.

[2] = biological target: T2, sPLA2-IIA catalytic activity (Homo sapiens, UniProt P14555); details: clinical trials; cited from earlier work
T2 sequence (P14555 21-144): T1 sequence (P14555 21-144)

FKN-CD = biological target: T3, FKN-CD (Homo sapiens, UniProt P78423); details: cited from earlier work
T3 sequence (P78423 25-100 limits assumed): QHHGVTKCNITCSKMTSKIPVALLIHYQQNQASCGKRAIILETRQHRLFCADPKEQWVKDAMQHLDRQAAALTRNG

[3] = tested on: integrin activation by FKN-CD; details: cited from earlier work
[4] = tested on: integrin α5β1 on U937, K562 and CHO cells; assay: Flow cytometry: binding of FITC-labeled FN8-11 to α5β1 on the cell surface; assay type: cell-based, human, Chinese hamster; details: sPLA2-IIA WT or mutants
Procedure: (§1) The cells were cultured to nearly confluent in RPMI 1640/10% FCS (K562 and U937) or DMEM/10% FCS (CHO cells). The cells were resuspended with RPMI 1640/0.02% BSA or DMEM/0.02% BSA and incubated for 30 min at room temperature to block remaining protein binding sites. The cells were then incubated with WT sPLA2-IIA or mutants for 5 min at room temperature and then incubated with FITC-labeled integrin ligands (γC399tr, FN-H120, FN8-11, and ADAM15) for 15 min at room temperature. For blocking experiments, sPLA-IIA was preincubated with S2-β1 peptide for 30 min at room temperature. The cells were washed with PBS/0.02% BSA and analyzed by FACSCalibur (Becton Dickinson, Mountain View, Calif.). For inhibition studies using Cmpd21, sPLA2-IIA was preincubated with Cmpd21 for 30 minutes at room temperature.

[5] = tested on: integrins αvβ3, α4β1, α5β1; assay: sPLA2-IIA-induced integrin activation (present study overall)
Procedure: ELISA-type binding assays were performed as described previously (18). Briefly, wells of 96-well Immulon 2 microtiter plates (Dynatech Laboratories, Chantilly, Va.) were coated with 100 μl 0.1 M NaHCO3 containing γC399tr or ADAM15 for 2 h at 37° C. Remaining protein binding sites were blocked by incubating with PBS/0.1% BSA for 30 min at room temperature. After washing with PBS, soluble recombinant αvβ3 (5 μg/ml) in the presence or absence of sPLA2-IIA (WT or mutants) was added to the wells and incubated in HEPES-Tyrodes buffer (10 mM HEPES, 150 mM NaCl, 12 mM NaHCO3, 0.4 mM NaH2PO4, 2.5 mM KCl, 0.1% glucose, 0.1% BSA) with 1 mM CaCl2 for 2 h at room temperature. After unbound αvβ3 was removed by rinsing the wells with binding buffer, bound αvβ3 was measured using anti-integrin β3 mAb (AV-10) followed by HRP-conjugated goat anti-mouse IgG and peroxidase substrates.
The cells were cultured to nearly confluent in RPMI 1640/10% FCS (K562 and U937) or DMEM/10% FCS (CHO cells). The cells were resuspended with RPMI 1640/0.02% BSA or DMEM/0.02% BSA and incubated for 30 min at room temperature to block remaining protein binding sites. […] The cells were washed with PBS/0.02% BSA and analyzed by FACSCalibur (Becton Dickinson, Mountain View, Calif.). […]

[6] = tested on: integrin ligands used in this study; assay: ELISA: binding of sPLA2-IIA to the integrin ligands used; details: ligands coated at 2 μM
Procedure: FIG. 10. Lack of binding of sPLA2-IIA to integrin ligands used in the present study. Wells of 96-well microtiter plates were coated with ligands (2 μM coating concentration) and the remaining protein-binding sites were blocked with BSA. The wells were then incubated with sPLA2-IIA ([…] in PBS) for 2 hours at room temperature, and bound sPLA2-IIA was determined using HRP-conjugated anti-6His antibody. sPLA2-IIA (20 ng/ml coating concentration, 1% of input sPLA2-IIA) was used as a positive control. Data are shown as means+/−SEM of triplicate experiments.

[7] = biological target: T4, β1 integrins on U937, K562 and α4-K562 cells (Homo sapiens, UniProt P05556); assay: Reactivity of β1 integrins to activation-dependent antibodies HUTS4 and HUTS21; assay type: cell-based; details: U937, K562, α4-K562 cells in RPMI1640; preliminary experiments
T4 construct: endogenous in cells; host or cells: U937, K562, α4-K562
T4 sequence (P05556 21-798): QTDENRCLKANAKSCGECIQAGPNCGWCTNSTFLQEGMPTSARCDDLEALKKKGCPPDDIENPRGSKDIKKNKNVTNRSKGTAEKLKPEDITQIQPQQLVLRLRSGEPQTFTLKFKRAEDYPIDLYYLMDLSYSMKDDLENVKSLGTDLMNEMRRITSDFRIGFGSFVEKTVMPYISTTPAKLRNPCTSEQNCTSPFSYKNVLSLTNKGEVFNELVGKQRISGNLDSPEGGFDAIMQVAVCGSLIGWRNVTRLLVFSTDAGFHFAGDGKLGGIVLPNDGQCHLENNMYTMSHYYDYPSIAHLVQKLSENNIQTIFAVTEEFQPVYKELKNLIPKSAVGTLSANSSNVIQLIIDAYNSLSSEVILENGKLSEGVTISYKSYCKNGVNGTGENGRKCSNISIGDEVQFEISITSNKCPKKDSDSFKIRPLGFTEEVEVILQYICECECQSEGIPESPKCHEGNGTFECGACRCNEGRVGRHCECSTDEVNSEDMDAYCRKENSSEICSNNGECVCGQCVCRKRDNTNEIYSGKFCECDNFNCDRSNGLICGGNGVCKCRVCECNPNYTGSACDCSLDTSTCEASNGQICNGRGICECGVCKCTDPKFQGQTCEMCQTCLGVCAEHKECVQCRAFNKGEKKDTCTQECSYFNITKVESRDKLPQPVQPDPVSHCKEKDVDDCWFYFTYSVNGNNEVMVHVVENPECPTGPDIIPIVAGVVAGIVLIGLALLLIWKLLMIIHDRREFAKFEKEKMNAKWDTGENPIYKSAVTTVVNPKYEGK
T4 sequence (P08648 42-894 partner limits assumed): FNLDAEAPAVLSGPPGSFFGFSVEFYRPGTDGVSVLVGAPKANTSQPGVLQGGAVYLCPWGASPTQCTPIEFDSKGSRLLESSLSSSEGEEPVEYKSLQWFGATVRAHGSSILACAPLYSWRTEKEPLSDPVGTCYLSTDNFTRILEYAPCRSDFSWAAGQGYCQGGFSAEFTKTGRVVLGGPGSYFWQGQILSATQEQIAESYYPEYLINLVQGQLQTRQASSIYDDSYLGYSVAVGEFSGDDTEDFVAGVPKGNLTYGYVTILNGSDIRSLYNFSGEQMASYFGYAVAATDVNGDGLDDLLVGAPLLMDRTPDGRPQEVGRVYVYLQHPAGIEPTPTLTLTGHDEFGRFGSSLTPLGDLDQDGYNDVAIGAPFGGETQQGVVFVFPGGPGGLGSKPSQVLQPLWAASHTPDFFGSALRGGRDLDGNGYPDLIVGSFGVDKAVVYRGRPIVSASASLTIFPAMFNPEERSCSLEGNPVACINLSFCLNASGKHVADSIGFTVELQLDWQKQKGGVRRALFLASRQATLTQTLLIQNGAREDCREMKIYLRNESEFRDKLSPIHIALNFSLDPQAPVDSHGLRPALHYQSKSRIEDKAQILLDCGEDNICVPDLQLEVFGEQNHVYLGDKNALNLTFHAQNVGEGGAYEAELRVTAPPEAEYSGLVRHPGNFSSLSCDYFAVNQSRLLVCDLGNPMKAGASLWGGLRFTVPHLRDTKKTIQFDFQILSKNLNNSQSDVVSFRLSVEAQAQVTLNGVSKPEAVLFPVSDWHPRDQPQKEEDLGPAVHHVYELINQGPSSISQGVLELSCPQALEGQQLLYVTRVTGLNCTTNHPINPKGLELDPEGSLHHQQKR
T4 sequence (P08648 895-1049 partner limits assumed): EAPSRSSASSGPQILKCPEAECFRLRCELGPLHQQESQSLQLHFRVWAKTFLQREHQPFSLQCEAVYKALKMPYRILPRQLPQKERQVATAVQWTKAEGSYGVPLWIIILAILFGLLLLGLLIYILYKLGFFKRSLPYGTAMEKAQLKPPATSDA
From the text: It is unclear whether sPLA2-IIA-induced integrin activation requires global conformational changes in integrins. In current models of integrin activation, activation of β1 integrins induces a swing-out movement of the hybrid domain and exposes epitopes recognized by activation-dependent antibodies (anti-human β1 HUTS4 and HUTS21)(45). The HUTS4 and HUTS21 epitopes are located in the hybrid domain of […] (46,47). […] It is possible that the binding of sPLA2-IIA to site 2 induces only local conformational changes within the headpiece of integrins. […] It was shown that sPLA2-IIA (the current study) FKN-CD (19) actually bind to site 2 and the binding of sPLA2-IIA and FKN to site 2 is required for integrin activation using the peptides from site 2. It is likely that integrins that are activated by sPLA2-IIA and FKN-CD through site 2 have conformations similar to the open-headpiece αvβ3 that has no global conformational changes compared to the closed-headpiece form. The open- and closed-headpiece conformations of αvβ3 may really reflect the fact that integrins can be activated without global conformational changes through allosteric mechanism.

[8] = tested on: integrin α4β1 on U937, α4-K562 and α4-CHO cells; assay: Flow cytometry: binding of FITC-labeled fibronectin H120 fragment to α4β1 on the cell surface; assay type: cell-based, human; details: for binding of H120 to α4β1 (α4β1 activation): U937, α4-K562, α4-CHO cells, sPLA2-IIA WT or mutants
Procedure: as §1

[9] = biological target: T5, integrin αvβ3 on U937, αvβ3-K562 and β3-CHO cells (Homo sapiens, UniProt P05106+P06756); assay: Flow cytometry: binding of FITC-labeled ADAM15 disintegrin domain to αvβ3; assay type: cell-based; details: sPLA2-IIA 20 μg/ml
T5 construct: expressed in transfected cells; host or cells: U937 (endogenous αvβ3); αvβ3-K562 (transfected human αvβ3); β3-CHO (human β3 with hamster αv)
Procedure: as §1

Listera = details: cited from earlier work
[10] = tested on: integrin αvβ3 on U937, αvβ3-K562 and β3-CHO cells; assay: Flow cytometry: binding of FITC-labeled γC399tr to αvβ3 on the cell surface; assay type: cell-based, human
Procedure: as §1

linear β1 peptide: linear peptide comprising SEQ ID NO:1, GST fusion (LPNDGQCHLENNMYTMSHYY; also: GST fusion)
binding to other ligands (e.g., SDF-1, IGF-1) [1]: did not bind to other ligands

S2-β1 peptide: site 2 peptide from integrin β1 (β1 275-294, SEQ ID NO:1), made as GST fusion protein (LPNDGQCHLENNMYTMSHYY; also: made as GST fusion protein)
chemotaxis induced by sPLA2-IIA (U937 cells): suppressed chemotaxis induced by sPLA2-IIA | binding of site 2 peptide to immobilized sPLA2-IIA (sPLA2-IIA): bound better to sPLA2-IIA in a concentration-dependent manner than S2-β3 peptide

CCc1c(C(=O)C(N)=O)c2c(OCC(=O)OC)cccc2n1Cc1ccccc1 [S-3013/LY333013]
therapeutic effect in rheumatoid arthritis and asthma [2]: failed to demonstrate a significant therapeutic effect

QPNDGQSHVGSDNHYSASTTM [S2-β3 peptide, site 2 peptide, residues 267-287 of β3, C273 changed to S, GST fusion protein]
binding to FKN-CD (FKN-CD): directly binds to FKN-CD | FKN-CD-induced integrin activation [3]: suppresses FKN-CD-induced integrin activation

CCc1c(C(=O)C(N)=O)c2c(OCC(=O)[O-])cccc2n1Cc1ccccc1.[Na+] [S-5920/LY315920Na]
therapeutic effect in rheumatoid arthritis and asthma [2]: failed to demonstrate a significant therapeutic effect

VHDSHYSGQGAMSDNTNSPQT [Compound S2-β3scr, scrambled site 2 peptide, GST fusion protein, control, reference compound]
binding of site 2 peptide to immobilized sPLA2-IIA (sPLA2-IIA): did not bind to sPLA2-IIA | FKN-CD-induced integrin activation [3]: does not

B1: WT sPLA2-IIA: recombinant human secreted phospholipase A2 type IIA, wild type (protein)
chain: T1 sequence (P14555 21-144)
binding of FITC-labeled FN8-11 to α5β1 (α5β1 activation) [4]: markedly increased the binding of FITC-labeled FN8-11 | sPLA2-IIA concentration required to detect integrin activation [5]: > 5 µg/mL | direct interaction of sPLA2-IIA with integrin ligands [6]: does not directly interact with the integrin ligands used in this study | reactivity of β1 integrins to HUTS4 and HUTS21 [7]: did not change reactivity of β1 integrins to HUTS4 and HUTS21 | binding of H120 to α4β1 (α4β1 activation) [8]: markedly increased the binding of H120 to α4β1 | sPLA2-IIA concentration of maximum H120 binding ([8]; α4-CHO cells, sPLA2-IIA up to 500 μg/ml, binding reduced at higher concentrations): 20 µg/mL | binding of FITC-labeled ADAM15 disintegrin domain to αvβ3 [9]: markedly enhanced | concentration that kills Listera (Listera): < 0.1 nM | activation of αvβ3 on the cell surface (FITC-γC399tr binding) [10]: activated αvβ3

B2: R74E/R100E: integrin-binding defective mutant of sPLA2-IIA (protein)
chain: T1 sequence (P14555 21-144) with R74E, R100E
modifications: left off: small tags and cut ends
binding of FITC-labeled FN8-11 to α5β1 (α5β1 activation) [4]: did not

B3: G29S/D48K: M-type receptor-binding defective mutant of sPLA2-IIA (protein)
chain: T1 sequence (P14555 21-144) with G29S, D48K
modifications: left off: small tags and cut ends
binding of FITC-labeled FN8-11 to α5β1 (α5β1 activation) [4]: induced α5β1 activation | binding of H120 to α4β1 (α4β1 activation) [8]: induced α4β1 activation
